Results from patent EP1591450A1, “CONJUGATE FOR RETENTION IN BLOOD AND CANCER TISSUE-SPECIFIC DRUG DELIVERY” (YAMANOUCHI PHARMACEUTICAL CO. LTD., priority 2003, dated 2004).
Where a SMILES comes first, the peptide text is derived from it. The star is where a group is joined. X1 = O=C(OCC1c2ccccc2-c2ccccc21)N(CC(=O)*)C(=O)OCC1c2ccccc2-c2ccccc21; Fmoc = O=C(OCC1c2ccccc2-c2ccccc21)*

Assays:
[1] = molecular target: T1, MMP-2 (Homo sapiens, UniProt P08253); test: Enzymatic degradation of peptide and peptide-PEG by MMP-2; type: biochemical; conditions: beginning of reaction (15 minutes), 37°C, Tris buffer pH 7.5; Figure 4
T1 sequence (P08253 110-660): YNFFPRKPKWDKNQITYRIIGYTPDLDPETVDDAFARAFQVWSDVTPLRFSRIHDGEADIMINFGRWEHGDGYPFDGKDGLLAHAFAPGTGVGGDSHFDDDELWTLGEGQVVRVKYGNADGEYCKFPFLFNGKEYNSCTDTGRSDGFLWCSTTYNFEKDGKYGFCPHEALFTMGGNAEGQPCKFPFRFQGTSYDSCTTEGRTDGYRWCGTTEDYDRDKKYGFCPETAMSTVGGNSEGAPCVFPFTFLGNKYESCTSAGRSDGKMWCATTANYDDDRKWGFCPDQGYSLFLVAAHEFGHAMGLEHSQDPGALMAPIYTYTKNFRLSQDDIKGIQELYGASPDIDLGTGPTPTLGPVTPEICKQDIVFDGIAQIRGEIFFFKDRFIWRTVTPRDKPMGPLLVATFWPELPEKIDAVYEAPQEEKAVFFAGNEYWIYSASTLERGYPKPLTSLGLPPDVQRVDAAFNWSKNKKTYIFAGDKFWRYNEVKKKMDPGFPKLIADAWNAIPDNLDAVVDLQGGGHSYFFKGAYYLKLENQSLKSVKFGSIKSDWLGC
Protocol: After mixing in 0.5 ml of sample in 0.5 ml of acetonitrile, the mixture was filtered and gel filtration was performed.
MMP-2 solution was diluted with Tris buffer. […] The final concentration of MMP-2 was 0.34 µg/ml. […] The Fmoc-GPQGIAGWG-PEG in the filtrate was separated and quantitatively determined by gel filtration.

[2] = Particle diameter determination of peptide-PEG micelles (NICOMP Model 370); type: physicochemical
Protocol: The particle diameter of the micelles and the liposomes was determined with the NICOMP Model 370 (Particle Sizing Systems, Inc.).
Then particle diameter was determined by a laser diffraction particle diameter distribution determination device (NICOMP Model 370)(Table1).

[3] = molecular target: T2, trypsin (Bos taurus, UniProt P00760); test: Enzymatic degradation of peptide by trypsin; type: biochemical; conditions: trypsin 10 µg/ml, 37°C, Tris buffer pH 7.5
T2 construct: gene PRSS1
T2 sequence (P00760 24-246): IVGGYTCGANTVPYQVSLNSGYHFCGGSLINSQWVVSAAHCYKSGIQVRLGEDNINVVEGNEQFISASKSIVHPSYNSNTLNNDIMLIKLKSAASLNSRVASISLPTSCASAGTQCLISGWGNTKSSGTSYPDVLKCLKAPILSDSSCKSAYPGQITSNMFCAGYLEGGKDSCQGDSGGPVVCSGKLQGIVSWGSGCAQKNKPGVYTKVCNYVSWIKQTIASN
Protocol: (§1) Fmoc-[…] was dissolved in Tris buffer (100 mM Tris/100 mM NaCl/10 mM CaCl2/0.05% BRIJ35, pH 7.5) and adjusted to a pre-determined concentration. MMP-2, collagenase, carboxypeptidase A, aminopeptidase-1, and trypsin were each diluted or dissolved in Tris buffer. Each enzyme solution was added to Fmoc-[…] solution that had been heated to 37°C and incubated for a pre-determined time at 37°C. The final concentration of the enzymes was as shown below: MMP-2: 0.17 µg/ml, collagenase: 7 µg/ml, carboxypeptidase A: 10 µg/ml, aminopeptidase-1: 10 µg/ml, trypsin: 10 µg/ml. After a pre-determined time, the same amount of acetonitrile was added to the sample solutions and they were filtered with a 0.5 µm filter (Millex-LH MILIPORE).

[4] = system: aminopeptidase-1; conditions: per unit weight of enzyme and unit time, beginning (15 minutes) of reaction, 37°C, Tris buffer pH 7.5; MMP-2 0.17 µg/ml, aminopeptidase-1 10 µg/ml
Protocol: as §1

[5] = system: collagenase; conditions: per unit weight of enzyme and unit time, beginning (15 minutes) of reaction, 37°C, Tris buffer pH 7.5; MMP-2 0.17 µg/ml, collagenase 7 µg/ml
Protocol: as §1

[6] = molecular target: carboxypeptidase A (Homo sapiens, UniProt P15085); conditions: per unit weight of enzyme and unit time, beginning (15 minutes) of reaction, 37°C, Tris buffer pH 7.5; MMP-2 0.17 µg/ml, carboxypeptidase A 10 µg/ml
carboxypeptidase A, sequence (P15085 111-419): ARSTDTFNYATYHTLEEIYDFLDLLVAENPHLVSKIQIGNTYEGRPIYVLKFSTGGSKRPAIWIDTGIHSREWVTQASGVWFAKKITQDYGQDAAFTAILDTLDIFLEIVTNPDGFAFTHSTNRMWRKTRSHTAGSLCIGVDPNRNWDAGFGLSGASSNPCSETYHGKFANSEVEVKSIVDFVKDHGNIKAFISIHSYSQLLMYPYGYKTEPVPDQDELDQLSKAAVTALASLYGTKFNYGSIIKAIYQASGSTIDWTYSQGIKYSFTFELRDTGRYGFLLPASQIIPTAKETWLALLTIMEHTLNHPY
Protocol: as §1

| Compound | degradation rate by MMP-2 per unit weight of MMP-2 and unit time, peptide compared with peptide-PEG [1] | Particle diameter ([2]; Concentration 5 µM in Tris buffer pH 7.5) [nm] | Particle diameter ([2]; Concentration 10 µM in Tris buffer pH 7.5) [nm] | Particle diameter ([2]; Concentration 20 µM in Tris buffer pH 7.5) [nm] | Particle diameter ([2]; Concentration 50 µM in Tris buffer pH 7.5) [nm] | Particle diameter ([2]; Concentration 100 µM in Tris buffer pH 7.5) [nm] | particle diameter of aggregate ([2]; at 5 µm or more) | critical micelle concentration ([2]; concluded from particle diameter and laser scattering intensity, Tris buffer pH 7.5) [µM] | Degradation by trypsin [3] | degradation rate by MMP-2 relative to that of aminopeptidase-1 [4] [x] | degradation rate by MMP-2 relative to that of collagenase [5] [x] | degradation rate by MMP-2 relative to that of carboxypeptidase A [6] [x] |
| --- | --- | --- | --- | --- | --- | --- | --- | --- | --- | --- | --- | --- |
| 9-fluorenylmethyloxycarbonyl (Fmoc)-glycyl-prolyl-glutamyl-glycyl-isoleucyl-alanyl-glycyl-tryptophanyl-glycyl (Gly-Pro-Gln-Gly-Ile-Ala-Gly-Trp-Gly)-amide propyl polyoxyethylene methyl ether (Fmoc-GPQGIAGWG-{amide propyl polyoxyethylene methyl ether}; not fully specified) [Fmoc-GPQGIAGWG-PEG] | virtually the same | 232 | 200 | 205 | 210 | 237 | approximately 200 nm | ~5 | – | – | – | – |
| CC[C@H](C)[C@H](NC(=O)CNC(=O)[C@H](CCC(=O)O)NC(=O)[C@@H]1CCCN1C(=O)CN(C(=O)OCC1c2ccccc2-c2ccccc21)C(=O)OCC1c2ccccc2-c2ccccc21)C(=O)N[C@@H](C)C(=O)NCC(=O)N[C@@H](Cc1c[nH]c2ccccc12)C(=O)NCC(=O)O [Fmoc-GPQGIAGWG, 9-fluorenylmethyloxycarbonyl (Fmoc)-glycyl-prolyl-glutamyl-glycyl-isoleucyl-alanyl-glycyl-tryptophanyl-glycine (Gly-Pro-Gln-Gly-Ile-Ma-Gly-Trp-Gly)] (X1-PEGIAGWG-OH) | virtually the same | – | – | – | – | – | – | – | not observed | 14.2 | 26.9 | 38.8 |
